In the nanobody polyreactivity screen of Harvey et al. (2022):

Test: yeast display, Sf9 membrane polyspecificity reagent, FACS + sequencing; frameworks hold sequencing errors
Method in brief: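 A nanobody's polyreactivity label depends on the gate it was sorted from. Yeast display cells were stained with 10% biotinylated, detergent-solubilized Sf9 membrane reagent for 1 hour at 4 °C, enriched on streptavidin microbeads and sorted by FACS. The low and high (top ~1%) gates were set on anti-HA fluorescence for expression and streptavidin fluorescence for reagent binding.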

Sequence	polyreactivity (PSR sort gate)
QVQLVESGGGLVQAGGSLRLSCAASGSTSARYAMGWYRQAPGKERELVATITRSGTTKYADSVKGRFTISRDNAKNTVYLQMNSLKPEDTAVYYCNSDTYFPLYDYWGQGTQVTVSS	low polyreactivity
QVQLVESGGGLVQAGGSLRLSCAASGSTSAYYAMGWYRQAPGKERELVAAISWSGGLTYYADSVKGRFTISRDNAKNTVYLQMNSLKPEDTAVYYCAASSYPYGYDYWGQGTQVTVSS	high polyreactivity
QVQLVESGGGLVQAGGSLRLSCAASGSTSDSYAMGWYRQAPGKERELVAAISRGTNTYYADSVKGRFTISRDNAKNTVYLQLNRLKPEDTAVYYCNKVQYLRKYWVTPTGQRFGYWGQGTQVTVSS	high polyreactivity
QVQLVESGGGLVQAGGSLRLSCAASGSTSDVYAMGWYRQAPGKEREFVAAIRFSGGSTYYADSVKGRFTISRDNAKNTVYLQMNSLKPEDTAVYYCAKRWGIWPRGYYWGQGTQVTVSS	low polyreactivity
QVQLVESGGGLVQAGGSLRLSCAASGSTSETYAMGWYRQAPGKERELVAAISGNGASTYYADSVKGRFTISRDNAKNTVYLQMNSLKPDDTAVYYCAAYFYYWGSTFVRYEYWGQGTQVTVSS	high polyreactivity
QVQLVESGGGLVQAGGSLRLSCAASGSTSGKNAMGWYRQAPGKERELVAVITYSGSRTYYADSVKGRFTISRDNAKNTVYLQMNSLIPEDTAVYYCAAVGGGVSFRGNYWGQGTQVTVSS	high polyreactivity
QVQLVESGGGLVQAGGSLRLSCAASGSTSGKYAMGWYRQAPGKERELVAGITKGGGGTYYADSVKGRFTISRDNAKNTVYLQMNSLKPEDTAVYYCAAGTLYSLYFGRHGYWGQGTQVTVSS	low polyreactivity
QVQLVESGGGLVQAGGSLRLSCAASGSTSGLYAMGWYRQAPGKERELVATISLSGGSTYYADSVKGRFTISRDNAKNTVYLQMNSLKPEDTAVYYCNTDKYKWNYGSTYRMDYWGQGTQVTVSS	low polyreactivity
QVQLVESGGGLVQAGGSLRLSCAASGSTSGSNAMGWYRQAPGKERELVAGISYSTADTNYADSVKGRFTISRDNAKNTVYLQMNSLKPEDTAVYYCATDPFGIASRHDDYWGQGTQVTVSS	low polyreactivity
QVQLVESGGGLVQAGGSLRLSCAASGSTSGSYGMGWYRQAPGKERELVAAIRISGDSTYYADSVKGRFTISRDNAKNTVYLQMNSLKPEDTAVYYCAAEAFFWYYGWYDYWGQGTQVTVSS	high polyreactivity
QVQLVESGGGLVQAGGSLRLSCAASGSTSHQYAMGSYRQAPGKERELVAAISSRAGSTYYADSVKGRFTISRDNAKNTVYLQMNSLKPEDTAVYYCAAEADSWKWGYDYWGQGTQVTVSS	low polyreactivity
QVQLVESGGGLVQAGGSLRLSCAASGSTSIYYTMGWYRQAPGKERELVAAITRGGRTYYADSVKGRFTISRDNAKNTVYLQMNSLKPEDTAVYYCAATTYLVWGYNYWGQGTQVTVSS	low polyreactivity
QVQLVESGGGLVQAGGSLRLSCAASGSTSKVYAMGWSRQAPGKERELVAAITFSGGSTYADSVKGRFTISRDNAKNTVYLQMNSLKPEDTAVYYCAVEVPYSWWWLVDYWGQGTLVTVSS	high polyreactivity
QVQLVESGGGLVQAGGSLRLSCAASGSTSLYYAMGWYRPAPGKEREFVAAITWSGGSTYYADSVKGRFTISRDNAKNTVYLQMNSLKPEDTAVYYCAARSYGYSAGYYWGQGTQVTVSS	high polyreactivity
QVQLVESGGGLVQAGGSLRLSCAASGSTSPGYAMGWYRQAPWKERELVAAITFRGTRTYYADSVKGRFTISRDNSKNTVYLQMNSLKPEDTEVYYCNVVGYGPNRGRVDYWGQGTLVTVSS	high polyreactivity
QVQLVESGGGLVQAGGSLRLSCAASGSTSQPYDMGWYRQAPGTERELVASITNGGSTNYADSVKGRFTISRDNAKNTVYLQMNSLNPEDTAVDYCATRNGYSGTYGYWGQGTQVTVSS	low polyreactivity
QVQLVESGGGLVQAGGSLRLSCAASGSTSQVNDMGWYRQAPGKERELVAAISSTGDRTYYADSVKGRFTISRDNAKNTVYLQMNSLKPEDTAVYYCNADLTSYYEEDERNDDDYWGQGTQVTVSS	low polyreactivity
QVQLVESGGGLVQAGGSLRLSCAASGSTSRIYGMGWYRQAPGTDRELVAAITRSGNTYADSVKGRFTISRDNANNTDYLQMNSLKPDDTAVYYCATAWRFTYFGYEYWGQGTQVTVSS	high polyreactivity
QVQLVESGGGLVQAGGSLRLSCAASGSTSRSAMGWYRQAPGKERELVASITRGGSTYYADSVKGRFTISRDNAKNTVYLQMNSLKPEDTAVYYCAARFPQHNYWAMDYWGQGTQVTVSS	high polyreactivity
QVQLVESGGGLVQAGGSLRLSCAASGSTSSYNAMGWYRQAPGKERELVAAINSGDNTYYADSVKGRFTISRDNAKNTVYLQMNSLKPDDTAVYYCNKVTRNFNYDYWGQGTQVTVSS	low polyreactivity
QVQLVESGGGLVQAGGSLRLSCAASGSTSVDYTMGWYRQAPGKERELVAAIDYNGDSTYYADSVKGRFTISRDNAKNTVYLQMNSLKPEDTAVYYCAADYLSFVVVKLYGYWGQGTQVTVSS	low polyreactivity
QVQLVESGGGLVQAGGSLRLSCAASGSTSVVNPMGWSRPAPGTERELVAAISWSGGSTYYADSVKGRFTISRDNAKNTVYLQMNSLKPEDTAVYYCAKRRVYYGSRYNYWGQGTQVTVSS	high polyreactivity

Sequence	polyreactivity (PSR sort gate)
QVQLVESGGGLVQAGGSLRLSCAASGSTSVYAMGWYRQAPGKERELVAAITRGGSTYYADSVKGRFTISRDNAKNTVYLQMNRLKPEDTAVYYCAVETYYSIFDIYDYWGQGTQVTVSS	low polyreactivity
QVQLVESGGGLVQAGGSLRLSCAASGSTSWIYAMGWYRQAPGKERELVAAISGRDGSTNYADSVKGRFTISRDNAKNTVYLQMNSLKPEDTAVYYCNATGRRFNRYGGDYWGQGTQVTVSS	high polyreactivity
QVQLVESGGGLVQAGGSLRLSCAASGSTSWIYAMGWYRQAPGQERELVAAISGRDGSTNYADSVKGRFTISRDNAKNTVYLQMNSLKPEDTAVYYCASYLYKSRYLPEYDYWGQGTQVTVSS	high polyreactivity
QVQLVESGGGLVQAGGSLRLSCAASGSTSYDYAMGWYRQAPGKERELVAAISRRGGSTYYADSVKGRFTISRDNAKNTVYLQMNSLKPEDTAVYYCAARSYSYLGWFSYDYWGQGTQVTVSS	low polyreactivity
QVQLVESGGGLVQAGGSLRLSCAASGSTSYVYATGGYRQAPGKERELVAAISGSGGRTYYADSVKGRFTISRDNAKNTVYLQMNSLKPEDTAVYYCNALPRPSYPFDYWGQGTQVTVSS	high polyreactivity
QVQLVESGGGLVQAGGSLRLSCAASGSTSYYYAMGWYRQAPGKERELVAAITTSGGSTYYADSVKGRFTISRDNAKNTVYLQMNSLKPEDTAVYYCATGYLYFTSYRYNYWGQGTQVTVSS	low polyreactivity
QVQLVESGGGLVQAGGSLRLSCAASGSTVYVYTMGGYRQAPGKERELVAANSLSGDNTYYADSVKGRFTISRDNAKNTVYLQKNSLKPEATAVYYCNADIIGFPADYLYDYWGQGTQVTVSS	low polyreactivity
QVQLVESGGGLVQAGGSLRLSCAASGSTVYYNAMGWYRQAPGKERELVADISWRGGITYYADSVKGRFTISRDNAKNTVYLQMNSLKPAETAVYYCNADAESFDDGYWGQGTQVTVSS	low polyreactivity
QVQLVESGGGLVQAGGSLRLSCAASGSTWNRNPMGWYRQAPGKERELVAAISWRGDSTSYADSVKGRFTISRDNAKNTVYLQMNSLKPEDTAVYYCATAHDYAFYRYWYVPSEYNYWGQGTQVTVSS	low polyreactivity
QVQLVESGGGLVQAGGSLRLSCAASGSTYAGNAIGWSRQAPRKERELVAAIDSSTGSTYYADSVKGRFTISRDNAKNTVYLQMNSLNPEDTAVYYCNKTSFLVKLDYWGQGTQVTVSS	low polyreactivity
QVQLVESGGGLVQAGGSLRLSCAASGSTYAIYAMGSYRQAPGKERELVASISGGSTNYADSVKGRFTISRDNAKNTVYLQMNSLKPEDTAVYYCAARGALHHWYRYDYWGQGTQVTVSS	low polyreactivity
QVQLVESGGGLVQAGGSLRLSCAASGSTYGYTMGWYRQAPGKERELVADITSGGTTNYADSVKGRFTISRDNAKNTVYLQMNSLKPEDTAVYYCATRGAEWGWLGSIFNPFDYWGQGTQVTVSS	low polyreactivity
QVQLVESGGGLVQAGGSLRLSCAASGSTYRIYAMGWYRQAPGKERELVAAITRSGGSTYYADSVKGRFTISRDNAKNTVYLQMNSMKPEDTAVYYCNRRGAYPAKYDYWGQGTQVTVSS	high polyreactivity
QVQLVESGGGLVQAGGSLRLSCAASGSTYRTYPMGWYRQAPGKERELVASISYRSGRTYYADSVKGRFTISRDNAKNTVYLPMNSLKPEDTAVYYCNSRMYGVISRMDYWGQGTQVTVSS	high polyreactivity
QVQLVESGGGLVQAGGSLRLSCAASGSTYSYYAMGWYRQAPGKERELVAAITTSGGRTYYADSVKGRFTISRDNAKNTVYLQMNSLKPEDTAVYYCNARRHWYSAWGYDYWGQGTQVTVSS	high polyreactivity
QVQLVESGGGLVQAGGSLRLSCAASGSTYVSNAMGWYRQAPGKERELVAAISTGGGTCYADSVKGRFTISRDNAKNTVYLQMNSLKPEDTAVYYCNAVYVWWDGWGLYYWGQGTQVTVSS	low polyreactivity
QVQLVESGGGLVQAGGSLRLSCAASGSTYYYAMGWYIQEPGKEREFVAAISASGGSTYYADSVKGRFTISRDNAKNTVYLQMNSLKPDDTAGYYCTPLGYGYWGQGTQVTVSS	high polyreactivity
QVQLVESGGGLVQAGGSLRLSCAASGSTYYYAMGWYREAPGKERELVAAISSSSGSTYYADSVKGRFTISRDNAKNTVYLQLNSLKPEDTAVYYCAAEGYKGWVYEYDYWGQGTQVTVSS	low polyreactivity
QVQLVESGGGLVQAGGSLRLSCAASGSTYYYYAMGSYRPAPGKERELVAAINTSGGITYYADSVKGRFTISRDNAKNTVYLQMNSLKPEDTAVYYCAARNRSYCGTFGSYNYDYWGQGTQVTVSS	high polyreactivity
QVQLVESGGGLVQAGGSLRLSCAASGSTYYYYAMGWYRQAPGKERELVASIRSGGNTNYADSVKGRFTISRDNAKNTVYLQMKSLIPEDTAVYYCASRYMGSYSGGNYWGQVTQVTVSS	low polyreactivity
QVQLVESGGGLVQAGGSLRLSCAASGSVFGKYAMGWYRQAPGKERELVAAISRSGGSTYYADSVKGRFTISRDNAKNTVYLQMNSLKPEDTAVYYCAADSPGPWRYDYWGQGTQVTVSS	high polyreactivity
